In US20210292414A1 (H LUNDBECK A S, published 2021):

T1: Sortilin hSORTECDBAP (human, UniProt Q99523 78-755)
T1 sequence: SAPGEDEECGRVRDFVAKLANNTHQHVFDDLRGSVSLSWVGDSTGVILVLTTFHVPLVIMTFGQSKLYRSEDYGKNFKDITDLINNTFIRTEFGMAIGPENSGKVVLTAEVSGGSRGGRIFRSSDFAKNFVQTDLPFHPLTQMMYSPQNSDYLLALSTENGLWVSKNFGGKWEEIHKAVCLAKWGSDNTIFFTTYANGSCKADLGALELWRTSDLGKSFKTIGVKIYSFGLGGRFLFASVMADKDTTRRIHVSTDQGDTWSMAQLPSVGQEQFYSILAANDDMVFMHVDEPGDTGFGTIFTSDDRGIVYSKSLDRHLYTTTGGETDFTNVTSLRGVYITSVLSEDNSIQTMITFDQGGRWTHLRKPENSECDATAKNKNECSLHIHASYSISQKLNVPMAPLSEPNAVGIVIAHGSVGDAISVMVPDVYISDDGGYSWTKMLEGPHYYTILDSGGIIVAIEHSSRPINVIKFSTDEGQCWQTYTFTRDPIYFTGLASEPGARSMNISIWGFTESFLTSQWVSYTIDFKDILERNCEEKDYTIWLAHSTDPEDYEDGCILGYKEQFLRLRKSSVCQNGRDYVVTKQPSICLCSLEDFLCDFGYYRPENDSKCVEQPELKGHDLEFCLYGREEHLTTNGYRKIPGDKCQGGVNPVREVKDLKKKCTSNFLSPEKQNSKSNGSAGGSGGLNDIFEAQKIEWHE

T2: Sortilin SORTECDBAP_tetra (tetraodon)
T2 construct: Fully tetraodon Sortilin ECD with BAP tag; also called tetraodon; tetraodon Sortilin
T2 chain: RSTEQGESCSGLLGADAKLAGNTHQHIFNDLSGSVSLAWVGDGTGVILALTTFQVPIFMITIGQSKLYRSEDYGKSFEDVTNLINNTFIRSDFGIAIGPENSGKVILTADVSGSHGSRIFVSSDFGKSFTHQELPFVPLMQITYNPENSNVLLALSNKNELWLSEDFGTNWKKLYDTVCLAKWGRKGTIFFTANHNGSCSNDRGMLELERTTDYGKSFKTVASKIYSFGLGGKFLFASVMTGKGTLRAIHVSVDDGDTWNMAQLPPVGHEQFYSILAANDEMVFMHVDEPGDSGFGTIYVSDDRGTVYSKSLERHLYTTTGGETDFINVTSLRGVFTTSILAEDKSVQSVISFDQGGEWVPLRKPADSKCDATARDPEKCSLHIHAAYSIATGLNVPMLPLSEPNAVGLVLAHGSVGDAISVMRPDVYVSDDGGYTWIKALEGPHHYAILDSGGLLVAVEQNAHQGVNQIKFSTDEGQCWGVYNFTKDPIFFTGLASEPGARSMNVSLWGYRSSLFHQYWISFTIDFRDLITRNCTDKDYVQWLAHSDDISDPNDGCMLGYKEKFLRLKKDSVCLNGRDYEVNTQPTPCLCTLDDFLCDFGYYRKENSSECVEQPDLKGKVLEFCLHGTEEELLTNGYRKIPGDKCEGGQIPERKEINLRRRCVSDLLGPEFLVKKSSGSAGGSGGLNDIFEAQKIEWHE

T3: Sortilin SORTECDBAP_hB12390 (human/tetraodon chimera)
T3 construct: Shuffle construct: chimeric human/tetraodon Sortilin ECD with BAP tag
T3 chain: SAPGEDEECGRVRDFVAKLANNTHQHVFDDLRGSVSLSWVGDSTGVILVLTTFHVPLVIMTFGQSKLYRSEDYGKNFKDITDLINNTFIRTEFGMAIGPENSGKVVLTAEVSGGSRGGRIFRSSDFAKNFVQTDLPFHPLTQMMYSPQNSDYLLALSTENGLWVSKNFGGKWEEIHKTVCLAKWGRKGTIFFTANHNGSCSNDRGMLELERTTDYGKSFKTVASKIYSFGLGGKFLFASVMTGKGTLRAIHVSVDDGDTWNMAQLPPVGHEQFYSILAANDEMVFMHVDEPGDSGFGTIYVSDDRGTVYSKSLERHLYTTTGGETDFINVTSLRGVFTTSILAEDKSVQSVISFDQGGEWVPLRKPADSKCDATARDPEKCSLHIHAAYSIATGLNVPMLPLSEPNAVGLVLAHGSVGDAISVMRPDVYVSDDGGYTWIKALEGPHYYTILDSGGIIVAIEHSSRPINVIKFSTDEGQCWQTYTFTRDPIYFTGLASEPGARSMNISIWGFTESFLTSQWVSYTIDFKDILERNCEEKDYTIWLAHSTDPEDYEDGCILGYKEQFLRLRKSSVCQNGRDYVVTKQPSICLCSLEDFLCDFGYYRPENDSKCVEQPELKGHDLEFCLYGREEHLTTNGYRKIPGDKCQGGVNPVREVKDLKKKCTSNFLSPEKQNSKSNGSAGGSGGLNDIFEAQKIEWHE

T4: Sortilin SORTECDBAP_hB45678 (human/tetraodon chimera)
T4 construct: Shuffle construct: chimeric human/tetraodon Sortilin ECD with BAP tag
T4 chain: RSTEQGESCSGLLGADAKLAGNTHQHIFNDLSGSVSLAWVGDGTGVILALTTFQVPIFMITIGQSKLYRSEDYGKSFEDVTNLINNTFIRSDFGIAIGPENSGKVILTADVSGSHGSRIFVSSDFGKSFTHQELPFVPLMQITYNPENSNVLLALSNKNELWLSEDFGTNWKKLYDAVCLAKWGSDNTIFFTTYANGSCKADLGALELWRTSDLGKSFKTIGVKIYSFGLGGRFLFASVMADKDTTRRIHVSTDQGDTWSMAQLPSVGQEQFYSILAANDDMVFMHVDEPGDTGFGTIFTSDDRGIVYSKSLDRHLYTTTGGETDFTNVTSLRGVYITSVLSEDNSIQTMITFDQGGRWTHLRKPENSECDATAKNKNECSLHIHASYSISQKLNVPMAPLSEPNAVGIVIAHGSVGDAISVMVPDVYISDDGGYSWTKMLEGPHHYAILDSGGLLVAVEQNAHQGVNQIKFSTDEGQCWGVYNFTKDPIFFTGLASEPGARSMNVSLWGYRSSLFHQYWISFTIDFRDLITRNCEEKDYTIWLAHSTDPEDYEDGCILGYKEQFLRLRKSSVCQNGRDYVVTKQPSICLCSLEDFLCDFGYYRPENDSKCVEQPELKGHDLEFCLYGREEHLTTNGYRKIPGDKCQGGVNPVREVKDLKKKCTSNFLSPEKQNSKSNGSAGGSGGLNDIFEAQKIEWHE

B1: Antibody 6003-900 (antibody, human IgG1, V domains shown)
VH: EVQLVESGGGLVKPGGSLRLSCAASGFTFSSYSMNWVRQAPGKGLEWVSSISSSSSYIYYADSVKGRFTISRDNAKNSLYLQMNSLRAEDTAVYYCARRGSGSYDAFDIWGQGTMVTVSS
VL: EIVLTQSPDFQSVTPKEKVTITCRASQSIGYSLHWYQQKPDQSPKLLIKYASQSFSGVPSRFSGSGSGTDFTLTINSLEAEDAAAYYCHQSSSLPLTFGGGTKVEIK
notes: also called antibody 900; Sortilin human antibody 900
B2: Antibody 6003-799 (antibody, human IgG1, V domains shown)
VH: QVQLVESGGGVVQPGRSLRLSCAASGFTFSSYGMHWVRQAPGKGLEWVTVISYDGSNKYYADSVKGRFTISRDNSKNTLYLQMNSLRAEDTAVYYCAKLTGDAFDIWGQGTMVTVSS
VL: EIVLTQSPATLSLSPGERATLSCRASQSVSSYLVWYQQKPGQAPRLLIYHASNRATGIPARFSGSGSGTDFTLTISSLEPEDFAVYYCQQRSNWPRITFGQGTRLEIK
B3: Antibody 6003-822 (antibody, human IgG1, V domains shown)
VH: EVQLLESGGGLVQPGESLTLSCAASGFTLSSYAMSWVRQAPGKGLEWVSSISGRLGTTYYAASVKGRFTISRDNSKNTLYLQMNSLRAEDTAIYSCAKAPSDAFDIWGQGTMVTVSS
VL: EIVLTQSPATLSLSPGERATLSCRASQSVSSYLAWYQQKPGQAPRLLIYDASNRATGIPARFSGSGSGTDFTLTISSLEPEDFAVYYCQQRSNWPIFTFGPGTKVDIK
B4: Antibody 6003-886 (antibody, human IgG1, V domains shown)
VH: QVQLVQSGAEVKKPGASVKVSCKASGYTFTKYGISWVRQAPGQGLEWMGWISAYNGNTNYAQKLQDRVTMTTDTFTSTAYMELRSLRSDDTAVYFCARDGPLTGDFTFYGMDVWGQGTTVTVSS
VL: EIVLTQSPATLSLSPGERATLSCRASQSVSSYLAWYQQKPGQAPRLLIYDASNRATGIPARFSGSGSGTDFTLTISSLEPEDFAVYYCQQRSNWPPFTFGPGTKVDIK
B5: IgG1-6003-910 (antibody, V domains shown)
VH: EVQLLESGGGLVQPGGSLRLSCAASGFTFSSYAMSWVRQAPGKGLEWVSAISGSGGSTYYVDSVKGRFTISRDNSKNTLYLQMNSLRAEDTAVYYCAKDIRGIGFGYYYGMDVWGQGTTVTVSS
VL: EIVLTQSPATLSLSPGERATLSCRASQSVSSYLVWYQQKPGQAPRLLIYDASNRATGIPARFSGSGSGTDFTLTISSLEPEDFAVYYCQQRSNWPPTFGQGTRLEIK
notes: also called Antibody 6003-910
B6: IgG1-6003-972 (antibody, V domains shown)
VH: QVQLVESGGGVVQPGRSLRLSCAASGFTFSDYAMHWVRRAPGKGLEWVVVISYDGSNKYYADSVKGRFTISRDNSKNTLYLQMNSLRAEDTAVYYCARDPSGGWYFDLWGRGTLVTVSS
VL: EIVLTQSPATLSLSPGERATLSCRASQSVSSYLAWYQQKPGQAPRLLIYDASNRATGIPARFSGSGSGTDFTLTISSLEPEDFALYYCQQRSHWPRTFGQGTKVEIK
notes: also called Antibody 6003-972

How the values were obtained:
Assay in all cases: BLI (Octet384RED)
Sortilin hSORTECDBAP = target: T1, Sortilin hSORTECDBAP
[1] = target: T2, Sortilin SORTECDBAP_tetra
[2] = target: T3, Sortilin SORTECDBAP_hB12390
[3] = target: T4, Sortilin SORTECDBAP_hB45678

| Binder | EC50 (Sortilin hSORTECDBAP) [ng/mL] | binding result [1] | EC50 [2] [ng/mL] | EC50 [3] [ng/mL] |
| --- | --- | --- | --- | --- |
| B1 | 1.06 | no binding | 1.06 | 1.19 |
| B2 | 3.49 | no binding | 3.36 | 4.16 |
| B3 | 1.97 | no binding | 1.89 | 2.08 |
| B4 | 3.4 | no binding | 3.36 | 3.45 |
| B5 | 1.34 | no binding | 1.84 | 2.23 |
| B6 | 1.35 | no binding | 2.36 | 2.57 |
